This note sets out measurements from paper PMC4264537 (Molecular microbiology, 2014).

This series concerns the molecule itself. Nature of the series: cross-linking.

B1: CstR (CsoR-like sulfurtransferase repressor), wild type, Staphylococcus aureus strain Newman (natural protein, UniProt Q9XBC0 1-86, looked up)
chain: MNYDKKMINRINRIQGQLNGIIKMMEEGKDCKDVITQISASKSSLQRLMGIIISENLIECVKVAADDEESSQELINEAVNLLVKSK
In general, stoichiometry N refers to a count of units in the complex or per binding partner. In the case of B1, the “stoichiometry N” value turned out to be 2.
